Laboratory results reported in patent US8192734B2, “Compositions and methods for bone strengthening” (Cornell University, priority 2007, dated 2012).
Marks after values point to notes of the source that are not given here.

Columns and labels:
Format in all cases: in vivo, pig
[1] = test system: weanling pigs fed high P diet; test: Examples 4-8: cortical and cancellous bone ash and mineral profile; conditions: 8 wk
Protocol: As in Examples 1-3, the animal protocol was approved by Cornell Animal Care and Use Committee. An 8-week feeding trial was conducted at Cornell University Swine Research Farm. Thirty weanling pigs (Yorkshire×Hampshire×Landrace, body weight=8.6±0.5 kg) were allocated into three groups (n=10). […] were fed a corn-soy basal diet (BD)+0.25% inorganic phosphorus (iP, dicalcium phosphate). Group 2 were fed BD+0.35% iP. Group 3 were fed BD+0.35% iP+3,400 units of phytase/kg (Escherichia coli appA2, OptiPhos, JBS United, Inc., Sheridan, Ind.). The BD (Table 7) contained adequate levels of all nutrients except for P^(63), and 0.25% iP is the supplementation level recommended by NRC^(24) to meet the P needs of this age of pigs. […] Pigs were housed in an environmentally-controlled barn (20-25° C.; 12-light: 12-dark cycle), and given free access to feed and water.
After the above mechanical tests, midshaft sections of both femur and metacarpus were cut and washed with de-ionized water. The cortical thickness of both bones was measured by slide caliper in the midshaft. Cortical and cancellous bones were separated for total ash and mineral analysis. A 3-cm long and 3-mm thick midshaft of femur and 1-cm long and 1.5-mm thick midshaft of metacarpus were used for cortical ash analysis. For cancellous bone, sponge-like bone from 3-cm below the growth plate of femur and 1.5-cm below the growth plate of metacarpus were collected. For ash analysis, bones were oven-dried at 110° C. for 24 h, and incinerated in a muffle furnace at 550° C. for 96 h. Concentrations of individual elements in the ash were measured using inductively coupled argon plasma spectrophotometer (ICAP 61E Trace Analyzer, Thermo Jarell Ash corporation, Franklin, Mass.)^(63), and were expressed on ash basis.

[2] = test system: pigs fed P-adequate corn-soybean meal basal diet; test: Expt 2: metatarsal and femur breaking strength, three-point bending test; conditions: main effect, phytase 2,000 U/kg or Sr 50 mg/kg
Protocol: (§1) Third and 4th metatarsals in both experiments and femur (right leg) in Experiment 2 were prepared by manually removing surrounding skin, muscle and other tissues. Bones were stored in closed plastic bags at 4° C. until strength analysis. Maximal breaking load was measured using an Instron 4500 Machine (Canton, Mass.) at room temperature (23° C.) by subjecting each bone to a three-point bending test^(28). During mechanical tests, force was applied to the center of the bone held by supports 2.0 cm apart for metatarsals and 3.3 cm apart for femur. The crosshead speed was set at 50 mm/min and the sample rate was 10 points/s. Final strength was determined from load-displacement curves indicating the maximum loads. The metatarsal breaking strength was expressed as the mean strength of four bones from both left and right feet of pigs in Experiment 1, and as the mean of the two bones from the right foot of pigs in Experiment 2.

[3] = test system: pigs fed P-adequate corn-soybean meal basal diet; test: Expt 2: metatarsal and femur mineral concentrations (ICP)
Protocol: After the breaking strength analysis, samples (˜100 to 200 mg) of metatarsals in both experiments and femur in Experiment 2 from the right legs were used for mineral analysis. Cortical bones were isolated after removing attached connective tissue using a stainless steel scalpel and collecting individual shards using needle-nosed pliers with plastic-covered clamps. […] Concentrations of individual elements in the dried bone samples were measured using inductively coupled argon plasma spectrophotometer (ICAP 61E Trace Analyzer, Thermo Jarell Ash corporation, Franklin, Mass.)(31). Samples were digested in a mixture of HNO3 and HClO4 (9:1, vol/vol), and then diluted in 5% HNO3 before analysis.

[4] = test system: pigs fed P-adequate corn-soybean meal basal diet; test: Expt 1: metatarsal breaking strength, three-point bending test; conditions: BD + phytase 2,000 U/kg, 6 wk
Protocol: Based on results of the preliminary trials, Experiment 1 was conducted with 24 gilts (6-wk old, 8.6±0.1 kg body weight) to test the possible benefit of phytase to metatarsal breaking load of pigs fed the corn-soybean meal basal diet (BD, Table 1). The BD contained 0.33% available P and adequate concentrations of all other required nutrients (24). The selected pigs were divided into two groups (n=12), and were fed BD or BD+phytase at 2,000 U/kg for 6 wk.
as §1, with “Experiment 2. […]” for “Experiment 2.”

[5] = 0.35% iP + Sr 50 mg/kg + phytase 3,400 U/kg, P<0.01
[6] = phytase 2000 U/kg and/or Sr 50 mg/kg, n=6

B1: Phytase: Escherichia coli AppA2 phytase (OptiPhos, JBS United, Inc.), added to diets at feed mixing; AppA2 is SEQ ID NO: 2 (protein, listed as Escherichia coli)
chain: MKAILIPFLSLLIPLTPQSAFAQSEPELKLESVVIVSRHGVRAPTKATQLMQDVTPDAWPTWPVKLGWLTPRGGELIAYLGHYQRQRLVADGLLAKKGCPQPGQVAIIADVDERTRKTGEAFAAGLAPDCAITVHTQADTSSPDPLFNPLKTGVCQLDNANVTDAILSRAGGSIADFTGHRQTAFRELERVLNFSQLNLCLNREKQDESCSLTQALPSELKVSADNVSLTGAVSLASMLTEIFLLQQAQGMPEPGWGRITDSHQWNTLLSLHNAQFYLLQRTPEVARSRATPLLDLIMAALTPHPPQKQAYGVTLPTSVLFIAGHDTNLANLGGALELNWTLPGQPDNTPPGGELVFERWRRLSDNSQWIQVSLVFQTLQQMRDKTPLSLNTPPGEVKLTLAGCEERNAQGMCSLAGFTQIVNEARIPACSL
[1]; 0.35% iP + Sr 50 mg/kg + phytase 3,400 U/kg
  decrease of P concentration in cancellous bones, femur and metacarpus: 22 to 31%
[1]; 0.35% iP + Sr 50 mg/kg + phytase 3,400 U/kg, P<0.002
  elevation of Sr concentration in cancellous bone, metacarpus: 115 fold
[1]; [5]
  enhancement of cancellous bone ash of femur: 12%
  enhancement of cancellous bone ash of metacarpus: 5%
  increase of total ash concentration of cortical bone, metacarpals: 3%
[1]; 0.35% iP + Sr 50 mg/kg + phytase 3,400 U/kg, P<0.05
  increase in Fe concentration of cancellous bone, femur: 33%
[1]; 0.35% iP + phytase 3400 U, n=5
  Femur cancellous bone Ca: 311.0^b g/Kg ash
  Femur cancellous bone Cr: 10.0 mg/kg ash
  Femur cancellous bone Fe: 75.6^a mg/kg ash
  Femur cancellous bone Mg: 6.0^b g/Kg ash
  Femur cancellous bone Na: 8.3^b g/Kg ash
  Femur cancellous bone P: 155.0^b g/Kg ash
  Femur cancellous bone S: 1833.2^b mg/kg ash
  Femur cancellous bone Sr: 93680.7^a mg/kg ash
  Femur cancellous bone Zn: 395.7^a mg/kg ash
  Femur compact bone Ca: 403.0 g/Kg ash
  Femur compact bone Cr: 12.6 mg/kg ash
  Femur compact bone Fe: 25.1 mg/kg ash
  Femur compact bone Mg: 7.6 g/Kg ash
  Femur compact bone Na: 9.4 g/Kg ash
  Femur compact bone P: 199.0 g/Kg ash
  Femur compact bone S: 649.9^b mg/kg ash
  Femur compact bone Sr: 568.8^b mg/kg ash
  Femur compact bone Zn: 278.8 mg/kg ash
  Metacarpus cancellous bone Ca: 329.0^b g/kg ash
  Metacarpus cancellous bone Cr: 10.7 mg/kg ash
  Metacarpus cancellous bone Fe: 66.4^a mg/kg ash
  Metacarpus cancellous bone Mg: 6.0 g/kg ash
  Metacarpus cancellous bone Na: 7.6^b g/kg ash
  Metacarpus cancellous bone P: 161.0^b g/kg ash
  Metacarpus cancellous bone S: 1334.5^b mg/kg ash
  Metacarpus cancellous bone Sr: 86221.0^a mg/kg ash
  Metacarpus cancellous bone Zn: 334.3 mg/kg ash
  Metacarpus compact bone Ca: 398.0 g/Kg ash
  Metacarpus compact bone Cr: 13.3 mg/kg ash
  Metacarpus compact bone Fe: 24.7 mg/kg ash
  Metacarpus compact bone Mg: 7.2 g/Kg ash
  Metacarpus compact bone Na: 8.6 g/Kg ash
  Metacarpus compact bone P: 195.0 g/Kg ash
  Metacarpus compact bone S: 763.8^b mg/kg ash
  Metacarpus compact bone Sr: 541.4^b mg/kg ash
  Metacarpus compact bone Zn: 307.7 mg/kg ash
[1]; phytase 3,400 U/kg into the 0.35% iP diet
  increases in Sr concentration in cancellous bones of femur and metacarpus vs 0.35% iP: > 100 fold
[2]
  improvement in breaking strength of femur: 20%
  improvement in breaking strength of metatarsals: 16%
[3]; main effect of phytase 2,000 U/kg, P<0.07
  elevation of metatarsal concentration of Sr: 11%
[3]; [6]
  femur Ca concentration: 300.3 g/kg
  femur Cr concentration: 7.2 mg/kg
  femur Fe concentration: 7.2 mg/kg
  femur Mg concentration: 5.3 g/kg
  femur Mn concentration: 0.8 mg/kg
  femur Na concentration: 8.3 g/kg
  femur P concentration: 178.6 g/kg
  femur S concentration: 1.0 g/kg
  femur Sr concentration: 94.3 mg/kg
  femur Zn concentration: 220.1 mg/kg
  metatarsal Ca concentration: 187.4 g/kg
  metatarsal Cr concentration: 20.5 mg/kg
  metatarsal Fe concentration: 15.3 mg/kg
  metatarsal Mg concentration: 3.5 g/kg
  metatarsal Mn concentration: 2.0 mg/kg
  metatarsal Na concentration: 7.4 g/kg
  metatarsal P concentration: 91.8 g/kg
  metatarsal S concentration: 0.9 g/kg
  metatarsal Sr concentration: 73.5 mg/kg
  metatarsal Zn concentration: 152.3 mg/kg
[4]
  breaking strength of metatarsals: 112.0 ± 3.9 kg
[4]; P<0.02
  greater breaking strength of metatarsals vs BD: 12%
